Here are results for 1 molecule from patent publication US20260009052, “CAS12 PROTEINS AND USES THEREOF” (GUANGZHOU REFORGENE MEDICINE CO., LTD., published 2026).

In data set [1] the target is T1, C12-279 Mut-02-1-5-426-858-860 (synthetic construct, I1R,L5R,Q186R,D352R,D426R,858R,L860R).
T1 chain: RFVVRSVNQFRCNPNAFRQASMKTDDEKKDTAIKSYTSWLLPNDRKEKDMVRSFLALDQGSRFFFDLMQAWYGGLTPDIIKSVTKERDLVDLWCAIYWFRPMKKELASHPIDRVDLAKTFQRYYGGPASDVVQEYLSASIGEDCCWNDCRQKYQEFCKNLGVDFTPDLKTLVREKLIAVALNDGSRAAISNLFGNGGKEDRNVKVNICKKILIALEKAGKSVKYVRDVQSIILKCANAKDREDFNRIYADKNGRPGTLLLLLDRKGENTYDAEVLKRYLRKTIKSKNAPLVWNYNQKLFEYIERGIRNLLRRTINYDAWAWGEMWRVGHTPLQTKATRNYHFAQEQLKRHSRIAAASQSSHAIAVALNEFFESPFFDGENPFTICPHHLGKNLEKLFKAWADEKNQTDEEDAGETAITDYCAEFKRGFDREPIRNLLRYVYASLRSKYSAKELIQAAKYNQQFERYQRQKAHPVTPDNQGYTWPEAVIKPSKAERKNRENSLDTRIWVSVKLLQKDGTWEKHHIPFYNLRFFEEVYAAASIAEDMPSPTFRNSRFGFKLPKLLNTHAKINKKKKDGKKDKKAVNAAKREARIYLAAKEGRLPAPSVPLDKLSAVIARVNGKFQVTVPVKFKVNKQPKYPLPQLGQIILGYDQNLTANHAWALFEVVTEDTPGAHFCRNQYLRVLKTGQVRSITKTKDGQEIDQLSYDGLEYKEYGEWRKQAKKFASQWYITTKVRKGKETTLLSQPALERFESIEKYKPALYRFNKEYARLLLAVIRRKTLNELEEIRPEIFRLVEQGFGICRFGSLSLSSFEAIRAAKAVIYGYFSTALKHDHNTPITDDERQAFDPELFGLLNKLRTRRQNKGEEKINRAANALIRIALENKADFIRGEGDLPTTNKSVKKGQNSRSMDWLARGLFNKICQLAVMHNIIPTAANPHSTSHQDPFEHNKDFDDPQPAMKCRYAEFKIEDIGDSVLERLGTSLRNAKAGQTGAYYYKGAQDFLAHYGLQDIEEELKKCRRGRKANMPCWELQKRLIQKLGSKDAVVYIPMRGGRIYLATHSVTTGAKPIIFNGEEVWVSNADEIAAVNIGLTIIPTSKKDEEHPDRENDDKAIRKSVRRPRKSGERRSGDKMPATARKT
The experiment in a line: cell_activity; PAM TTG.

Data set [2] deals with T2, C12-279 (synthetic construct).
T2 chain: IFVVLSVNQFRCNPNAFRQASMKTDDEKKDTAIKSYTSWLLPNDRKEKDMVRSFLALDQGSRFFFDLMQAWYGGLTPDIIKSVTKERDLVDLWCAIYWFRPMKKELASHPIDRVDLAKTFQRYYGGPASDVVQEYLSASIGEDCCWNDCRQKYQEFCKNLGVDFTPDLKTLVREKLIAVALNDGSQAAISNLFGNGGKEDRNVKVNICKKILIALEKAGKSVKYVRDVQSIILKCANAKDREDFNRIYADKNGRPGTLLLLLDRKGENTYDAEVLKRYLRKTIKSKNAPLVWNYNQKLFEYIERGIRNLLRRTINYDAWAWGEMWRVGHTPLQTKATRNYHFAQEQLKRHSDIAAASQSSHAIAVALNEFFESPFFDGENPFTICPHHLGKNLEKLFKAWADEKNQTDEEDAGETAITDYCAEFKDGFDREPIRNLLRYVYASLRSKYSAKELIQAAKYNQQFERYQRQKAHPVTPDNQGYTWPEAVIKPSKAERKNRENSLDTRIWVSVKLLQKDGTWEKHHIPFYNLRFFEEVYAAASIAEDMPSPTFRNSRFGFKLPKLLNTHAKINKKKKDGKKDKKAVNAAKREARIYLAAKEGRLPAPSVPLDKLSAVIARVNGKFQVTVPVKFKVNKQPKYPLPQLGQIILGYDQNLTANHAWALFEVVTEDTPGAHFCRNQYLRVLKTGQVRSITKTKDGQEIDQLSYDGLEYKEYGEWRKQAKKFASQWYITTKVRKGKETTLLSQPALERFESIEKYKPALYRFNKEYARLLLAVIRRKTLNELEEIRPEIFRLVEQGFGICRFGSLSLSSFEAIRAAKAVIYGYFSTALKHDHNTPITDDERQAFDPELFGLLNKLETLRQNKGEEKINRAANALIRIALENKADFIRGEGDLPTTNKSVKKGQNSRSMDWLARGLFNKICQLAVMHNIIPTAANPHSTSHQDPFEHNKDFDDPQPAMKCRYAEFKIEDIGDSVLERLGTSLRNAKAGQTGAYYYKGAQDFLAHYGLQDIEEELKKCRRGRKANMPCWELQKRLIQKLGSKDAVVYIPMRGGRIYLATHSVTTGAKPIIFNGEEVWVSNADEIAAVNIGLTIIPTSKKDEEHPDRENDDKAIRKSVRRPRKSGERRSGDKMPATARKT
The experiment in a line: cell_activity; PAM TTG; GFP reporter. Particulars: tags: NLS.

B1: C12-279 Reporter3 sgRNA ; Reporter3 target (ssRNA ; dsDNA)
RNA: GUAAUGCGUCUCCCAUUGACGCCUCACCUCGCGACGCAAUGAUG
DNA 1: CTCACCTCGCGACGCAATGATG
DNA 2: CATCATTGCGTCGCGAGGTGAG
B1: the binding signal in data set [1] is 3.77 fold of C12-279; in data set [2], 1 fold of C12-279.
